These results are taken from article PMC12738837, “Structure of Trypanosoma peroxisomal import complex unveils conformational heterogeneity” (Nature Communications, 2025).

Values joined by “and” are separate entries in the source; they are usually repeats but may differ in a detail not shown here. Identical values can stand only once.

To fix the notation:
B2: glycosomal malate dehydrogenase (MDH, residues 1–323) (enzyme, Trypanosoma cruzi, UniProt Q4DRD8 1-323, looked up)
chain: MVNVAVIGAAGGIGQSLSLLLLRELPFGSTLSLYDVVGAPGVAADLSHIDRAGITVKHAAGKLPPVPRDPALTELAEGVDVFVIVAGVPRKPGMTRDDLFNVNAGIVMDLVLTCASVSPNACFCIVTNPVNSTTPIAAQTLRKIGVYNKNKLLGVSLLDGLRATRFINNARHPLVVPYVPVVGGHSDVTIVPLYSQIPGPLPDESTLKEIRKRVQVAGTEVVKAKAGRGSATLSMAEAGARFTMHVVKALMGLDTPMVYAYVDTDGEHECPFLAMPVVLGKNGIERRLPIGPITTVEKEMLEEAVGVVKKNIAKGETFARSKL
notes: glycosomal malate dehydrogenase (MDH), Trypanosoma cruzi, residues 1-323, UniProt Q4DRD8; Tetramer (two dimers related by D2 symmetry) by cryo-EM; also called cargo; MDH tetramer; source: E. coli BL21 (DE3), purified (Ni-NTA, SEC)

Series [1] addresses Pex5eTPR(Y358A) mixed beforehand with the PTS1 peptide of MDH (Trypanosoma cruzi) (UniProt Q4DPQ9). Kind of series: ITC; Pex14NTD in the syringe injected into Pex5eTPR + PTS1 peptide in the cell; 20 mM sodium phosphate, 100 mM NaCl, pH 6.5, 25 °C; independent model. In general terms: Isothermal titration calorimetry measures the heat released or taken up as one component is titrated into another.

Series [2] deals with Pex5eTPR(N353E) mixed beforehand with the PTS1 peptide of MDH (Trypanosoma cruzi) (UniProt Q4DPQ9). The series is described as above.
In series [3] the target is Pex5eTPR (wild type) mixed beforehand with the PTS1 peptide of MDH (Trypanosoma cruzi) (UniProt Q4DPQ9). The series is described as above.
Series [4] deals with B2. Kind of series: cryo-EM structure; ternary complex: purified MDH (tetramer), full-length Pex5 and Pex14NTD mixed at 1:4:12, overnight at 4 °C, separated on Superose6 10/300, vitrified at ~0.75 mg/mL; no cross-linking; MDH alone solved from the same dataset. To be noted: both partners purified.
Series [5] deals with 6-FAM labeled PTS1 peptide. In words: fluorescence polarisation. On the technique in general: In fluorescence polarisation assays a small probe gives low polarisation when free and higher when bound to something large.
Series [6] concerns the molecule itself. Kind of series: cryo-EM structure; ternary complex: purified MDH (tetramer), full-length Pex5 and Pex14NTD mixed at 1:4:12, overnight at 4 °C, separated on Superose6 10/300, vitrified at ~0.75 mg/mL; no cross-linking; MDH alone solved from the same dataset.
Another series concerns the target T1, Pex5_(eTPR)(P490R) (Trypanosoma cruzi, UniProt Q4DPQ9 316-668, P490R).
T1 construct: source: E. coli BL21 (DE3), purified as wild type (Ni-NTA, SEC)
T1 sequence: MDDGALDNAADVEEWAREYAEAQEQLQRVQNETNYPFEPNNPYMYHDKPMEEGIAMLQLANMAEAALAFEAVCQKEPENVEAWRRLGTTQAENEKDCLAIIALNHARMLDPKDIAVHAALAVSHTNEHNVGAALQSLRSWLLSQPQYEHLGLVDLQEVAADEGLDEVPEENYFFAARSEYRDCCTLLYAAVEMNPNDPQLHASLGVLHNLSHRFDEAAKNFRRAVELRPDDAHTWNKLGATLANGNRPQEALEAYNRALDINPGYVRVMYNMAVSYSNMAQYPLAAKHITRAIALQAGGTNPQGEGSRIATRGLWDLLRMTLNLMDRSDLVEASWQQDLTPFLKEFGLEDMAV
In words: ITC; Pex5_(eTPR) (250 μM) injected into MDH (25 μM) in the cell; 100 mM Hepes, 150 mM NaCl, 2 mM β-mercaptoethanol, pH 7.5; 25 °C. As to conditions: both partners purified.

The target in series [7] is T2, Pex5_(eTPR)(R625A, D629A) (Trypanosoma cruzi, UniProt Q4DPQ9 316-668, R625A | D629A).
T2 construct: source: E. coli BL21 (DE3), purified as wild type (Ni-NTA, SEC)
T2 sequence: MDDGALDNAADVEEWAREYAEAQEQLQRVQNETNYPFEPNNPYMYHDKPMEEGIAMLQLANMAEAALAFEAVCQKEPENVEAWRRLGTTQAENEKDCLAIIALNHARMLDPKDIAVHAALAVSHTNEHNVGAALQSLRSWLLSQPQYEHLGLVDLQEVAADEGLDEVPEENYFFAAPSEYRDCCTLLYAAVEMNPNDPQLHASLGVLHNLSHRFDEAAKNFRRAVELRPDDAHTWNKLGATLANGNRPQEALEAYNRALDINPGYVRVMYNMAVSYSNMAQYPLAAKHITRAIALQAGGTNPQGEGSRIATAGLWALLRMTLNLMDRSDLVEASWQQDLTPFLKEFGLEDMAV
The description is as above. As to conditions: both partners purified.

Series [8] has as its target T3, Pex5_(eTPR) (residues 314–666), truncated Pex5 containing an extended TPR domain with a single Wxxx(F/Y) motif (Trypanosoma cruzi, UniProt Q4DPQ9 316-668). Described as above. To be noted: both partners purified.
The target in series [9] is T3, Pex5_(eTPR) (residues 314–666), …. Kind of series: ITC; Pex5_(eTPR) with the PTS1 peptide (NH2-ARSKL-COOH); who was in the cell is not stated for the peptide; 25 °C. To be noted: both partners purified.

With “N-terminal domain of Pex14 (Pex14NTD), wild type (domain or fragment)”, the Ka amounted to 1.24e+07 M⁻¹ in series [1], 2.24e+07 M⁻¹ in series [2] and 1.9e+07 M⁻¹ in series [3].

B1: full length Pex5 (residues 1–666) (receptor, Trypanosoma cruzi, UniProt Q4DPQ9 1-668, looked up)
chain: MDCSTGAAIGQQFAKDAFHMHGGVGVGPTGNPEHDVLMNEMMMVQTPTGPAGEWTHQFAAYQGKQQQQHPQELAMRHQQNDALMLRQQQEMEEAFCTLCAAHPHSHAHSHAHSHQPQGLVGPAMMGPQIMPPMMFGPGSGGFMMGTPPMMPYASMKFAGDAAMAAANNTTMTQGATATSTTSVQQEQQQQQSSDNGWVEKLRDAEWAQDYSDAQVFTLEGQSEQTMEEHAKNSEFYQFMDKIRSKELLIDEETGQLVQGPGPDPDAPEDAEYLKEWAAAEGLNMPPGFFEHMMQRPQGNNEQAEGRLFDGSNDALMDDGALDNAADVEEWAREYAEAQEQLQRVQNETNYPFEPNNPYMYHDKPMEEGIAMLQLANMAEAALAFEAVCQKEPENVEAWRRLGTTQAENEKDCLAIIALNHARMLDPKDIAVHAALAVSHTNEHNVGAALQSLRSWLLSQPQYEHLGLVDLQEVAADEGLDEVPEENYFFAAPSEYRDCCTLLYAAVEMNPNDPQLHASLGVLHNLSHRFDEAAKNFRRAVELRPDDAHTWNKLGATLANGNRPQEALEAYNRALDINPGYVRVMYNMAVSYSNMAQYPLAAKHITRAIALQAGGTNPQGEGSRIATRGLWDLLRMTLNLMDRSDLVEASWQQDLTPFLKEFGLEDMAV
notes: Pex5, Trypanosoma cruzi, full length, residues 1-666, GenBank PBJ69826.1; Contains three Wxxx(F/Y) motifs; source: E. coli BL21 (DE3), purified (Ni-NTA, SEC)
What is called stoichiometry N is the number of molecules, sites or subunits per partner or assembly. As a reminder, the Kd is a measure of binding affinity in units of concentration. Low values mean higher affinity, high ones lower affinity. For B1, in series [4], the “stoichiometry N” value is 1 Pex5 per MDH tetramer and 2 Pex5 per MDH tetramer. In series [5], the Kd amounted to 88 nM.
In the case of B2, the “stoichiometry N” value in [6] was found to be 4. Moreover, the figures for the Kd (with Pex5_(eTPR)(P490R); in series [7]; in series [8]) were 1390 ± 226 nM, 453 ± 64 nM and 435 ± 80 nM, respectively.

B3: PTS1 peptide derived from MDH (NH2-ARSKL-COOH) (peptide)
peptide: H-ARSKL-OH
notes: short peptide encompassing PTS1 of T. cruzi glycosomal MDH, residues 319-ARSKL-323; also called MDH-derived PTS1 peptide
Molecule B3 displayed a dissociation constant Kd in series [9] of 135 ± 19 nM.
